Measured values published in article PMC11532494 (Nature Communications, 2024).
Where “and” joins values, the source holds several entries; their conditions need not be identical. Equal values may be shown once. Read-outs that look alike come from different tables or passages of the source. No end group written: not given here. *: point of attachment. AMC = Cc1cc(=O)oc2cc(N*)ccc12

Assays:
VsHdaH (1b) = assay type: biochemical, Vibrio sp.; conditions: for RFU means, VsHdaH (1b) / RFU*2 means, VsHdaH (1b): means of two measurements; for [AMC] (nM), VsHdaH (1b), means / [AMC] (nM), VsHdaH (1b): substrate screening; for [AMC] (nM), VsHdaH (1b), means: mean of two measurements
RsPrpH (1b) = test: Substrate screening assay (acyl-peptide-AMC); assay type: biochemical, Rhizorhabdus sp.
RwDmhA (1b) = RwDmhA (1b) (Rhizorhabdus wittichii, UniProt A0A067XIQ6); assay type: biochemical
KpHdaH (1b) = KpHdaH (1b) (Klebsiella pneumoniae, UniProt A0A377Z5F6); assay type: biochemical; conditions: for RFU means, KpHdaH (1b) / RFU*2 means, KpHdaH (1b): means of two measurements; for [AMC] (nM), KpHdaH (1b), means / [AMC] (nM), KpHdaH (1b): substrate screening; for [AMC] (nM), KpHdaH (1b), means: mean of two measurements
BsAcuC (2c) = biological target: T1, BsAcuC (2c) (Bacillus subtilis, UniProt P39067); test: Substrate screening assay (acyl-peptide-AMC); assay type: biochemical; conditions: for RFU means, BsAcuC (2c) / RFU*2 means, BsAcuC (2c): means of two measurements; for [AMC] (nM), BsAcuC (2c), means: substrate screening, mean of two measurements
T1 construct: made in house; host or cells: E. coli BL21 (DE3)
T1 sequence (P39067 1-387): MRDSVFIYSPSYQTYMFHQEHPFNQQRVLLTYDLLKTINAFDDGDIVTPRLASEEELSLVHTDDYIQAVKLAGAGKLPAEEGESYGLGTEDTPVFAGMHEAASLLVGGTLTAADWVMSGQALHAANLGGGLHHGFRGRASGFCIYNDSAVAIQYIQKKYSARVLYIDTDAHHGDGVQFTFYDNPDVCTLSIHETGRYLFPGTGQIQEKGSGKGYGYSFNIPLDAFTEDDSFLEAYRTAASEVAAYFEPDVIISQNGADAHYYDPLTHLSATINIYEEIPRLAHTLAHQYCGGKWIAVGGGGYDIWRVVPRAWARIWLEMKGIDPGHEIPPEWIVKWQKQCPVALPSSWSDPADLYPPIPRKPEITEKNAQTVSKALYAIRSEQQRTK
Protocol: (§1) Experiments with SIRT2 and SIRT5 were supplemented with NAD^+ (500 µM). Thereafter, a solution of trypsin (25 µL, 5.0 mg/mL; final concentration of 2.5 mg/mL) was added, and the development of the assay was allowed to proceed for 90 min at room temperature before fluorescence analysis. […] To this end, a single category is given to all conversions >48% on the heatmap. […] For the H4-derived peptide LGKbio no positive control was available.

VcHdaH (5b) = assay type: biochemical, Vibrio cholerae; conditions: for RFU means, VcHdaH (5b) / RFU*2 means, VcHdaH (5b): means of two measurements; for [AMC] (nM), VcHdaH (5b), means: substrate screening, mean of two measurements
PsApaH (4) = PsApaH (4) (Pseudomonas sp. M30-35, UniProt A0A1Y0KY79); assay type: biochemical; conditions: for RFU means, PsApaH (4) / RFU*2 means, PsApaH (4): means of two measurements; for [AMC] (nM), PsApaH (4), means / [AMC] (nM), PsApaH (4): substrate screening; for [AMC] (nM), PsApaH (4), means: mean of two measurements
Protocol: as §1

LcApaH (3) = LcApaH (3) (Legionella cherrii, UniProt A0A0W0SGS1); assay type: biochemical
LpApaH (3) = LpApaH (3) (Legionella pneumophila, UniProt A0A2S6EWV0); assay type: biochemical
Controls [1] = assay type: biochemical
Controls [2] = assay type: biochemical; remark: listed apart in the source
[3] = two measurements, single values
[4] = substrate screening, mean of two measurements
[5] = substrate screening, measurement 1 of two
[6] = substrate screening, measurement 2 of two

## QPKKoct (QPKK-{AMC}; not fully specified (residue 4); printed as QPKKoct; also: octanoyl-lysine (which Lys not given here); UniProt P04637 317-320, looked up, fragment)
VsHdaH (1b)
  RFU means, VsHdaH (1b): 110.5 RFU
  RFU*2 means, VsHdaH (1b): 221 RFU*2
  [AMC] (nM), VsHdaH (1b), means: 107.91 nM
VsHdaH (1b); measurement 1 of two
  [AMC] (nM), VsHdaH (1b): 121.09 nM
VsHdaH (1b); measurement 2 of two
  [AMC] (nM), VsHdaH (1b): 94.73 nM
VsHdaH (1b); [3]
  RFU*2, VsHdaH (1b): 248 RFU*2 and 194 RFU*2
  RFU, VsHdaH (1b): 124 RFU and 97 RFU
RsPrpH (1b); means of two measurements
  RFU means, RsPrpH (1b): 38 RFU
  RFU*2 means, RsPrpH (1b): 76 RFU*2
RsPrpH (1b); [4]
  [AMC] (nM), RsPrpH (1b), means: 37.11 nM
RsPrpH (1b); [5]
  [AMC] (nM), RsPrpH (1b): 3.91 nM
RsPrpH (1b); [6]
  [AMC] (nM), RsPrpH (1b): 70.31 nM
RwDmhA (1b); means of two measurements
  RFU means, RwDmhA (1b): 64 RFU
  RFU*2 means, RwDmhA (1b): 128 RFU*2
RwDmhA (1b); [4]
  [AMC] (nM), RwDmhA (1b), means: 62.50 nM
RwDmhA (1b); [5]
  [AMC] (nM), RwDmhA (1b): 51.76 nM
RwDmhA (1b); [6]
  [AMC] (nM), RwDmhA (1b): 73.24 nM
RwDmhA (1b); [3]
  RFU*2, RwDmhA (1b): 106 RFU*2 and 150 RFU*2
  RFU, RwDmhA (1b): 53 RFU and 75 RFU
KpHdaH (1b)
  RFU means, KpHdaH (1b): -28 RFU
  RFU*2 means, KpHdaH (1b): -56 RFU*2
  [AMC] (nM), KpHdaH (1b), means: -27.34 nM
KpHdaH (1b); measurement 1 of two
  [AMC] (nM), KpHdaH (1b): -12.70 nM
KpHdaH (1b); measurement 2 of two
  [AMC] (nM), KpHdaH (1b): -41.99 nM
BsAcuC (2c)
  RFU means, BsAcuC (2c): 2011.5 RFU
  RFU*2 means, BsAcuC (2c): 4023 RFU*2
  [AMC] (nM), BsAcuC (2c), means: 1964.36 nM
BsAcuC (2c); [3]
  RFU*2, BsAcuC (2c): 4802 RFU*2 and 3244 RFU*2
VcHdaH (5b)
  RFU means, VcHdaH (5b): 71 RFU
  RFU*2 means, VcHdaH (5b): 142 RFU*2
  [AMC] (nM), VcHdaH (5b), means: 69.34 nM
VcHdaH (5b); [3]
  RFU*2, VcHdaH (5b): 138 RFU*2 and 146 RFU*2
  RFU, VcHdaH (5b): 69 RFU and 73 RFU
PsApaH (4)
  RFU means, PsApaH (4): 80.5 RFU
  RFU*2 means, PsApaH (4): 161 RFU*2
  [AMC] (nM), PsApaH (4), means: 78.61 nM
PsApaH (4); measurement 1 of two
  [AMC] (nM), PsApaH (4): 85.94 nM
PsApaH (4); measurement 2 of two
  [AMC] (nM), PsApaH (4): 71.29 nM
PsApaH (4); [3]
  RFU*2, PsApaH (4): 146 RFU*2 and 176 RFU*2
  RFU, PsApaH (4): 73 RFU and 88 RFU
LcApaH (3)
  RFU means, LcApaH (3): 186 RFU
  RFU*2 means, LcApaH (3): 372 RFU*2
  [AMC] (nM), LcApaH (3), means: 181.64 nM
LpApaH (3)
  RFU means, LpApaH (3): 63 RFU
  RFU*2, LpApaH (3): 110 RFU*2 and 142 RFU*2
  RFU*2 means, LpApaH (3): 126 RFU*2
  RFU, LpApaH (3): 55 RFU and 71 RFU
  [AMC] (nM), LpApaH (3): 53.71 nM and 69.34 nM
  [AMC] (nM), LpApaH (3), means: 61.52 nM
Controls [1]
  RFU means, controls: 8340.5 RFU
  RFU*2, controls: 13158 RFU*2 and 20204 RFU*2
  RFU*2 means, controls: 16681 RFU*2
  RFU, controls: 6579 RFU and 10102 RFU
Controls [2]
  [AMC] (nM), controls, means: 8145.02 nM

## QPKKpal (QPKK-{AMC}; not fully specified (residue 4); printed as QPKKpal; also: palmitoyl-lysine (which Lys not given here); UniProt P04637 317-320, looked up, fragment)
VsHdaH (1b)
  RFU means, VsHdaH (1b): 11 RFU
  RFU*2 means, VsHdaH (1b): 22 RFU*2
  [AMC] (nM), VsHdaH (1b), means: 10.74 nM
VsHdaH (1b); measurement 1 of two
  [AMC] (nM), VsHdaH (1b): 40.04 nM
VsHdaH (1b); measurement 2 of two
  [AMC] (nM), VsHdaH (1b): -18.55 nM
RsPrpH (1b)
  RFU means, RsPrpH (1b): -58.5 RFU
  RFU*2 means, RsPrpH (1b): -117 RFU*2
  [AMC] (nM), RsPrpH (1b), means: -57.13 nM
RwDmhA (1b)
  RFU means, RwDmhA (1b): -48 RFU
  RFU*2 means, RwDmhA (1b): -96 RFU*2
  [AMC] (nM), RwDmhA (1b), means: -46.88 nM
KpHdaH (1b)
  RFU means, KpHdaH (1b): 2.5 RFU
  RFU*2 means, KpHdaH (1b): 5 RFU*2
  [AMC] (nM), KpHdaH (1b), means: 2.44 nM
KpHdaH (1b); measurement 1 of two
  [AMC] (nM), KpHdaH (1b): 8.79 nM
KpHdaH (1b); measurement 2 of two
  [AMC] (nM), KpHdaH (1b): -3.91 nM
BsAcuC (2c)
  RFU means, BsAcuC (2c): 77 RFU
  RFU*2 means, BsAcuC (2c): 154 RFU*2
  [AMC] (nM), BsAcuC (2c), means: 75.20 nM
VcHdaH (5b)
  RFU means, VcHdaH (5b): -8.5 RFU
  RFU*2 means, VcHdaH (5b): -17 RFU*2
  [AMC] (nM), VcHdaH (5b), means: -8.30 nM
PsApaH (4)
  RFU means, PsApaH (4): 27 RFU
  RFU*2 means, PsApaH (4): 54 RFU*2
  [AMC] (nM), PsApaH (4), means: 26.37 nM
PsApaH (4); measurement 1 of two
  [AMC] (nM), PsApaH (4): 39.06 nM
PsApaH (4); measurement 2 of two
  [AMC] (nM), PsApaH (4): 13.67 nM
LcApaH (3)
  RFU means, LcApaH (3): 26.5 RFU
  RFU*2 means, LcApaH (3): 53 RFU*2
  [AMC] (nM), LcApaH (3), means: 25.88 nM
LpApaH (3)
  RFU means, LpApaH (3): 16 RFU
  RFU*2 means, LpApaH (3): 32 RFU*2
  [AMC] (nM), LpApaH (3), means: 15.63 nM
Controls [1]
  RFU means, controls: 9515.5 RFU
  RFU*2, controls: 16530 RFU*2 and 21532 RFU*2
  RFU*2 means, controls: 19031 RFU*2
  RFU, controls: 8265 RFU and 10766 RFU
Controls [2]
  [AMC] (nM), controls, means: 9292.48 nM
